Measured values taken from article PMC12271210.
pKd: −log10 of the molar value.

How the values were obtained:
[1] = molecular target: KPNB1; assay: BLI; APS probe with immobilised KPNB1 (10 μg/ml, to saturation), N protein in solution (gradient 0.61–2.07 μM or 4.17–8.89 μM); 30°C, PBS + 0.2% BSA; 1:1 binding model; ForteBio Octet
[2] = molecular target: classic PRRSV N protein (porcine reproductive and respiratory syndrome virus (classic PRRSV)); assay: BLI; SA probe with immobilised N protein (10 μg/ml, immobilization height 2.2 nm), KPNA1 in solution (gradient 1.47–4.97 μM or 0.87–9.95 μM); 30°C, PBS + 0.2% BSA; 1:1 binding model; ForteBio Octet
[3] = molecular target: HP-PRRSV N protein (porcine reproductive and respiratory syndrome virus (HP-PRRSV)); assay: as above

Substance | pKd [1] | koff [1] | kon [1] | pKd [2] | koff [2] | kon [2] | pKd [3] | koff [3] | kon [3]
HP-PRRSV N protein (natural protein) | 5.67 | 0.00737 s⁻¹ | 3450 M⁻¹ s⁻¹ | – | – | – | – | – | –
KPNA1 (receptor) | – | – | – | 6.52 | 0.000619 s⁻¹ | 2030 M⁻¹ s⁻¹ | 6.04 | 0.000446 s⁻¹ | 490 M⁻¹ s⁻¹
classic PRRSV N protein (natural protein) | 6.53 | 0.00179 s⁻¹ | 6110 M⁻¹ s⁻¹ | – | – | – | – | – | –
